Data on one molecule can be found in patent US20250092135A1 (NANJING LEADS BIOLABS, published 2025).

Holding throughout (test): BLI (ForteBio Octet RED96), antibody on AHC sensor, analyte 100-3.13 nM, 1:1 model
A general note: BLI is a label-free optical method that tracks binding on a fibre tip over time.

Assay [1] has as its target T1, Cynomolgus monkey CD3D & CD3E heterodimer protein (cynomolgus monkey, UniProt Q95LI5 22-117; Q95LI8 22-105).
T1 construct: same catalogue number; also called monkey CD3 protein (Acro biosystems, Cat #CDD-C52W4)
An excerpt:
(§1) In this experiment, the binding affinity of the bispecific antibody for the human CD3 protein (Cat #CT038-H2508H, Sinobiological), cynomolgus monkey CD3 protein (Cat #CDD-C52W4, Acrobiosystems), human MUC16 protein (full-length human MUC16, the membrane-proximal end of the extracellular region of MUC16 (Table 26)), and cynomolgus monkey MUC16 protein (full-length cynomolgus monkey MUC16, the membrane-proximal end of the extracellular region of MUC16 (Table 26)) was detected using ForteBio Octet RED96 according to the manufacturer's instructions.
(§2) Briefly, an AHC sensor (ForteBio, Cat #18-5060) was placed in a running buffer (1×PBS, Hyclone, Cat #SH30256.01, containing 0.02% Tween 20, pH 7.0) and pre-equilibrated at room temperature for 10 min. […] The experimental data were fitted and calculated using a Fortebio Data Analysis software 1:1 binding model.

The target of the next assay is T2, Human MUC16-His (human).
T2 construct: The entry includes the C-terminal 6xHis tag; also called membrane-proximal end of the extracellular region of the human MUC16 protein; Human MUC16 protein
T2 chain: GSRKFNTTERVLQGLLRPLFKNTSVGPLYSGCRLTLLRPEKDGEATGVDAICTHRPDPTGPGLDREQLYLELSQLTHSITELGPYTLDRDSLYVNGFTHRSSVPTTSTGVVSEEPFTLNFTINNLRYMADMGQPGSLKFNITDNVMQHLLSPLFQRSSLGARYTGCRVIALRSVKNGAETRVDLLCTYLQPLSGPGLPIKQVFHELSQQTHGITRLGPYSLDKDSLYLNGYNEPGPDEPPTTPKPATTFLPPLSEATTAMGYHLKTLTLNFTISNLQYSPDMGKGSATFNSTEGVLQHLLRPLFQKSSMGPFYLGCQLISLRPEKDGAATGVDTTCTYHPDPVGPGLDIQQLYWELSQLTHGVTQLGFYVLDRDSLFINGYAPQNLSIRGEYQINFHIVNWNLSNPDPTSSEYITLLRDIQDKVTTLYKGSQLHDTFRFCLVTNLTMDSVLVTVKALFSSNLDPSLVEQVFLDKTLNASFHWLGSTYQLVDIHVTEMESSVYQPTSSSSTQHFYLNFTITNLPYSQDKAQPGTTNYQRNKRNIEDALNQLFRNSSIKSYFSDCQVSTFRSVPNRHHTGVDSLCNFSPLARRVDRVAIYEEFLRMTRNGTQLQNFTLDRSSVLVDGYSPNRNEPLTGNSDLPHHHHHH
From the text: as §1, §2

Assay [2] concerns the target T3, Cynomolgus monkey MUC16-His (cynomolgus monkey).
T3 construct: The entry includes the C-terminal 6xHis tag; also called Cynomolgus monkey MUC16 protein
T3 chain: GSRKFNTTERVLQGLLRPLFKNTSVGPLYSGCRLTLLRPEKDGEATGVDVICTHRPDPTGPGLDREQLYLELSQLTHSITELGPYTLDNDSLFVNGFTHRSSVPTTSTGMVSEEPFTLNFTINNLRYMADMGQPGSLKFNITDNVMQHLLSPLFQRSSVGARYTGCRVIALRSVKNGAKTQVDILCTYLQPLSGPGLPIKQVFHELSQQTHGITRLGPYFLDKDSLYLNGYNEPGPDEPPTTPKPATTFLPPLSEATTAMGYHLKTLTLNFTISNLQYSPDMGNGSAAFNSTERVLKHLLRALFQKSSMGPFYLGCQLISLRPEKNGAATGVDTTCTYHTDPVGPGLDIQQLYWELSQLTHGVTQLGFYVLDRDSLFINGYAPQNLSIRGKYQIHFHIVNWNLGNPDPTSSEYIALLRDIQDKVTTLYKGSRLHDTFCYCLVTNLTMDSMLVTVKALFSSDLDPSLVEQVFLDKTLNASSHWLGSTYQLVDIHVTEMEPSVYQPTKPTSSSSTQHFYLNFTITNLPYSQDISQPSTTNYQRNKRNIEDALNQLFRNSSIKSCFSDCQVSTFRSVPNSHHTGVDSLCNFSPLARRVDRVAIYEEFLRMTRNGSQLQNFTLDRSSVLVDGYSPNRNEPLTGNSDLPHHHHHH
From the text: as §1, §2

For assay [3], the target named is T4, Human CD3D & CD3E heterodimer protein (human, UniProt P07766 23-126; P04234 22-105).
T4 construct: Bought recombinant heterodimer; also called human CD3 protein (Sino Biological, Cat #CT038-H2508H)
T4 sequence (P07766 23-126 limits assumed, chain 1 of 2): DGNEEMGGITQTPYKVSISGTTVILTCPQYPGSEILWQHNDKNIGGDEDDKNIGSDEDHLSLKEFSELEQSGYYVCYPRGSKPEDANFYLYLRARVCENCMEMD
T4 sequence (P04234 22-105 limits assumed, chain 2 of 2): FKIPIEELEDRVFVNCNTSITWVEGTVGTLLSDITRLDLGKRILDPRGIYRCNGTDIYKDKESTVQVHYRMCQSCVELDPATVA
From the text: as §1, §2

T1 sequence (Q95LI5 22-117 limits assumed, chain 1 of 2): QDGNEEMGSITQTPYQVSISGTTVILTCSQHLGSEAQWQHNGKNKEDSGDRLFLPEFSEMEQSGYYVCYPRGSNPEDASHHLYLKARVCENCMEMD
T1 sequence (Q95LI8 22-105 limits assumed, chain 2 of 2): as the sequence (P04234 22-105 limits assumed, chain 2 of 2) above, with I5V, N15K, I20V, S32T, D33N, I34N, T64A, S74N, V83L counted along it

B1: anti-CD3/MUC16 bispecific antibody MCH7-23L2-MCH7 (bispecific antibody, human IgG1, kappa, L234A L235A)
heavy 1: QVQLVQSGAEVKKPGASVKVSCKASGYTFTDYNIHWVRQAPGQGLEWMGYIYPYNGVSDYNQNFKSRVTMTTDTSTSTAYMELRSLRSDDTAVYYCARWDFGSGYYFDYWGQGTLVTVSSASTKGPSVFPLAPSSKSTSGGTAALGCLVKDYFPEPVTVSWNSGALTSGVHTFPAVLQSSGLYSLSSVVTVPSSSLGTQTYICNVNHKPSNTKVDKKVEPKSCEVQLVESGGGLVQPGGSLKLSCAASGFTFSTYAMNWVRQAPGKGLEWVGRIRSKYNNYATYYADSVKDRFTISRDDSKNTLYLQMNSLKTEDTAVYYCTRHGNFGNSYVSWFAYWGQGTTVTVSSGGGGSGGGGSGGGGSQAVVTQEPSLTVSPGGTVTLTCRSSTGAVTTSNYANWVQQKPGQAPRGLIGGTNKRAPGVPARFSGSLLGGKAALTLSGAQPEDEAEYFCALWYSNLWVFGGGTKLTVLGEPKSSDKTHTCPPCPAPEAAGGPSVFLFPPKPKDTLMISRTPEVTCVVVAVSHEDPEVKFNWYVDGVEVHNAKTKPREEQYNSTYRVVSVLTVLHQDWLNGKEYKCKVSNKALAAPIEKTISKAKGQPREPQVCTLPPSRDELTKNQVSLSCAVKGFYPSDIAVEWESNGQPENNYKTTPPVLDSDGSFFLVSKLTVDKSRWQQGNVFSCSVMHEALHNHYTQKSLSLSPGK
heavy 2: not shown
light: EIVLTQSPATLSLSPGERATLSCRASSSVIYMSWYQQKPGQAPRLLIYGTSTLASGIPARFSGSGSGTDFTLTISSLEPEDFAVYYCQQWSSNPFTFGQGTKLEIKRTVAAPSVFIFPPSDEQLKSGTASVVCLLNNFYPREAKVQWKVDNALQSGNSQESVTEQDSKDSTYSLSSTLTLSKADYEKHKVYACEVTHQGLSSPVTKSFNRGEC
notes: MCH7-23L2ScFv-Hole (VH-CH1-scFv-Fc) + MCH7-KIH-Knob + two light chains MCL4 LC
A word on the Kd: it is the equilibrium constant for the complex coming apart. In general, koff refers to the first-order rate constant of dissociation. As a reminder, the kon is the second-order rate constant of association. In the case of B1, the Kd in assay [1] was determined as 30.4 nM; with Human MUC16-His, 3.17 nM; in assay [2] it was 2.91 nM; in assay [3], 44.3 nM. The koff amounted to 0.00378 s⁻¹ in assay [1], 0.000524 s⁻¹ in the assay with Human MUC16-His, 0.000546 s⁻¹ in assay [2] and 0.00933 s⁻¹ in assay [3]. Also, the kon in assay [1] was determined as 124000 M⁻¹ s⁻¹; with Human MUC16-His, 166000 M⁻¹ s⁻¹; in assay [2] it was 188000 M⁻¹ s⁻¹; in assay [3] it was 211000 M⁻¹ s⁻¹.
